# Experimental data reported in article PMC8366450, “Human CPPED1 belongs to calcineurin‐like metallophosphoesterase superfamily and dephosphorylates PI3K‐AKT pathway component PAK4” (Journal of Cellular and Molecular Medicine, 2021).
# Molecular target: T1, human recombinant CPPED1 with N-terminal His-V5 dual tag (human, UniProt Q9BRF8 1-314)
# T1 construct: Calcineurin-like phosphoesterase domain-containing protein 1 (CPPED1), human; cloned into PSF-OXB20-NH2-6HIS-V5-TEV; 38.9 kDa including the His-V5 dual tag; The vector name holds a TEV site; no cleavage is told; also called calcineurin-like phosphoesterase domain-containing protein 1; purified recombinant CPPED1; not shown: His6, N-terminal, kept; V5, N-terminal, kept
# Assay: peptide or protein array; HuProt v3.1 human proteome microarray; >20 000 human recombinant proteins immobilised on the array; purified His-V5-CPPED1 applied
# Conditions: both partners purified
row,binding result,Binder
1,binds,"HIV-1 Tat interactive protein 2 (natural protein, human, UniProt Q9BUP3 1-242, looked up, also called HTATIP2; source: S. cerevisiae, purified (GST tag); on bought array: HuProt v3.1, Cambridge Protein Arrays) MAETEALSKLREDFRMQNKSVFILGASGETGRVLLKEILEQGLFSKVTLIGRRKLTFDEEAYKNVNQEVVDFEKLDDYASAFQGHDVGFCCLGTTRGKAGAEGFVRVDRDYVLKSAELAKAGGCKHFNLLSSKGADKSSNFLYLQVKGEVEAKVEELKFDRYSVFRPGVLLCDRQESRPGEWLVRKFFGSLPDSWASGHSVPVVTVVRAMLNNVVRPRDKQMELLENKAIHDLGKAHGSLKP"
2,binds,"CRK proto-oncogene, adaptor protein (natural protein, human, UniProt P46108 1-304, looked up, CRK proto-oncogene, adaptor protein, human, as on the HuProt v3.1 array; source: S. cerevisiae, purified (GST tag); on bought array: HuProt v3.1, Cambridge Protein Arrays) MAGNFDSEERSSWYWGRLSRQEAVALLQGQRHGVFLVRDSSTSPGDYVLSVSENSRVSHYIINSSGPRPPVPPSPAQPPPGVSPSRLRIGDQEFDSLPALLEFYKIHYLDTTTLIEPVSRSRQGSGVILRQEEAEYVRALFDFNGNDEEDLPFKKGDILRIRDKPEEQWWNAEDSEGKRGMIPVPYVEKYRPASASVSALIGGNQEGSHPQPLGGPEPGPYAQPSVNTPLPNLQNGPIYARVIQKRVPNAYDKTALALEVGELVKVTKINVSGQWEGECNGKRGHFPFTHVRLLDQQNPDEDFS"
3,binds,"Interferon-stimulated exonuclease gene 20 (enzyme, Interferon-stimulated exonuclease gene 20, human, as on the HuProt v3.1 array; also called ISG20; source: S. cerevisiae, purified (GST tag); on bought array: HuProt v3.1, Cambridge Protein Arrays) not shown"
4,binds,"Cell division cycle associated 3 (natural protein, human, UniProt Q99618 1-268, looked up, Cell division cycle associated 3, human, as on the HuProt v3.1 array; also called CDCA3; source: S. cerevisiae, purified (GST tag); on bought array: HuProt v3.1, Cambridge Protein Arrays) MGSAKSVPVTPARPPPHNKHLARVADPRSPSAGILRTPIQVESSPQPGLPAGEQLEGLKHAQDSDPRSPTLGIARTPMKTSSGDPPSPLVKQLSEVFETEDSKSNLPPEPVLPPEAPLSSELDLPLGTQLSVEEQMPPWNQTEFPSKQVFSKEEARQPTETPVASQSSDKPSRDPETPRSSGSMRNRWKPNSSKVLGRSPLTILQDDNSPGTLTLRQGKRPSPLSENVSELKEGAILGTGRLLKTGGRAWEQGQDHDKENQHFPLVES"
